# US20060121045A1 (published 2006)
# B1: anti-PA 14B7 scFv (scFv)
# scFv: DIQMTQTTSSLSASLGDRVTISCRASQDIRNYLNWYQQKPDGTVKLLIYYTSRLQSGVPSRFSGSGSGTDYSLTISNQEQEDIGTYFCQQGNTLPWTFGGGTKLEIKRGGGGSGGGGSGGGGSGGGGSEVQLQQSGPELVKPGASVKISCKDSGYAFSSSWMNWVKQRPGQGLEWIGRIYPGDGDTNYNGKFKGKATLTADKSSSTAYMQLSSLTSVDSAVYFCARSGLLRYAMDYWGQGTSVTVSS
# B2: M18 scAb (scFv)
# scFv: DIQMTQTTSSLSASLGDRVTVSCRASQDIRNYLNWYQQKPDGTVKFLIYYTSRLQPGVPSRFSGSGSGTDYSLTINNLEQEDIGTYFCQQGNTPPWTFGGGTKLEIKRGGGGSGGGGSGGGGSGGGGSEVQLQQSGPELVKPGASVKISCKDSGYAFNSSWMNWVKQRPGQGLEWIGRIYPGDGDSNYNGKFEGKAILTADKSSSTAYMQLSSLTSVDSAVYFCARSGLLRYAMDYWGQGTSVTVSS
# B3: M18 scAb-PEG 40 kDa (scFv)
# scFv: DIQMTQTTSSLSASLGDRVTVSCRASQDIRNYLNWYQQKPDGTVKFLIYYTSRLQPGVPSRFSGSGSGTDYSLTINNLEQEDIGTYFCQQGNTPPWTFGGGTKLEIKRGGGGSGGGGSGGGGSGGGGSEVQLQQSGPELVKPGASVKISCKDSGYAFNSSWMNWVKQRPGQGLEWIGRIYPGDGDSNYNGKFEGKAILTADKSSSTAYMQLSSLTSVDSAVYFCARSGLLRYAMDYWGQGTSVTVSS
# B4: M18 scAb-PEG 20 kDa (scFv)
# scFv: DIQMTQTTSSLSASLGDRVTVSCRASQDIRNYLNWYQQKPDGTVKFLIYYTSRLQPGVPSRFSGSGSGTDYSLTINNLEQEDIGTYFCQQGNTPPWTFGGGTKLEIKRGGGGSGGGGSGGGGSGGGGSEVQLQQSGPELVKPGASVKISCKDSGYAFNSSWMNWVKQRPGQGLEWIGRIYPGDGDSNYNGKFEGKAILTADKSSSTAYMQLSSLTSVDSAVYFCARSGLLRYAMDYWGQGTSVTVSS
# Experiments:
# [1] = target: T1, anthrax protective antigen (PA) (Bacillus anthracis, UniProt P13423 30-764); assay: SPR
# T1 sequence (P13423 30-764 limits assumed): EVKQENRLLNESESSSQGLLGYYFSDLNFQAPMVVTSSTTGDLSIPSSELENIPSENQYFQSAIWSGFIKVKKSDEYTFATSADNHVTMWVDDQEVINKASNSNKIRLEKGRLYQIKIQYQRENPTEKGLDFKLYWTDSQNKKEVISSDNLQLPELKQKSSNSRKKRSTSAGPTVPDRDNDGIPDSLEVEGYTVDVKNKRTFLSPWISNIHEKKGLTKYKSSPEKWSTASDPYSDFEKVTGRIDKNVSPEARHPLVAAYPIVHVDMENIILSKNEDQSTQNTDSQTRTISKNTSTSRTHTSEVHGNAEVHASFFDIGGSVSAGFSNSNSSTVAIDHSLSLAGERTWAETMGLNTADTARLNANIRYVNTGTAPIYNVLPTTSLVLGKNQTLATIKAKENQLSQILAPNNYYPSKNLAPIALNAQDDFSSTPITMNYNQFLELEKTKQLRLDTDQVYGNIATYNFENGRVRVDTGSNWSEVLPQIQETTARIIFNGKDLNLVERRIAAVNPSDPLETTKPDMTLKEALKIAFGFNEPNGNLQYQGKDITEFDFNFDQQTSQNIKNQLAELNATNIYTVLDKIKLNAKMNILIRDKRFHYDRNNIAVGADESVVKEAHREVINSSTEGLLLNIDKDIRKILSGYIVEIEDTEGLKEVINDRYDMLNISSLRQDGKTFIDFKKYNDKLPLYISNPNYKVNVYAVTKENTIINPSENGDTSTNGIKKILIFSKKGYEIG
# [2] = target: T1, anthrax protective antigen (PA); assay: SPR (Biacore 3000), antibody down; PA analyte
# [3] = target: T1, anthrax protective antigen (PA); assay: SPR (Biacore 3000), PA down; antibody analyte
# [4] = target: T1, anthrax protective antigen (PA); assay: not stated (presumably SPR)
Binder,Kd [1],koff [1],kon [1],Kd [2],kon [2],Kd [3],kon [3],Kd [4],fold improvement of KD over the whole antibody to PA [4]
B1,4.3 nM,0.003 s⁻¹,710000 M⁻¹ s⁻¹,,,,,,
B2,0.035 nM,4.2e-05 s⁻¹,1.2e+06 M⁻¹ s⁻¹,0.095 nM,930000 M⁻¹ s⁻¹,0.044 nM,1.4e+06 M⁻¹ s⁻¹,0.054 nM,~5 fold
B3,,,,0.043 nM,870000 M⁻¹ s⁻¹,2.6 nM,27000 M⁻¹ s⁻¹,,
B4,,,,0.025 nM,780000 M⁻¹ s⁻¹,0.69 nM,100000 M⁻¹ s⁻¹,,
